Results as given in patent USRE49583E1, “Inducible expression systems” (priority 2005, dated 2023).
“Also recorded” adds a separate entry of the source.

Test system: chromosomally integrated CMV-7tetO luciferase reporter in HeLa X1/6 cells
Experiment: rtTA activity assay, HeLa X1/6 cells with integrated CMV-7tetO luciferase reporter (Example 1, FIG. 2-3, 5, 14, 15)
Assay type: cell-based
Details: for basal / background activity in the absence of inducer: no dox or other effector; for rtTA activation by minocycline (Mc): 0-10000 ng/ml Mc
From the text: To test whether this rtTA optimization reflects a specific adaptation to the viral LTR-2ΔtetO promoter, we assayed rtTA activity with a reporter gene construct in which luciferase expression is under the control of a minimal CMV promoter coupled to an array of seven tetO elements. […] Thus, the observed mutations in rtTA are not virus-specific adaptations, but are general improvements of the Tet-on system. We also assayed rtTA activity in HeLa X1/6 cells that contain chromosomally integrated copies of the CMV-7tetO luciferase reporter construct (FIG. 2C). In these cells, the evolved rtTAs show a similar pattern of activity as with episomal reporter gene constructs in C33A cells. Thus, these mutations improve rtTA activity independent of the type of promoter and the episomal or chromosomal status of the target gene.
The V10 variant needs only 44 ng/ml dox to reach this activity level, which reflects a 23-fold higher dox-sensitivity than the wild-type rtTA.
rtTA activity assay. Two firefly luciferase reporter constructs with different promoter configurations were used. pLTR-2ΔtetO-luc contains the LTR-2ΔtetO promoter derived from the HIV-rtTA molecular clone (Marzio et al. 2001; Marzio et al. 2002). pCMV-7tetO-luc, previously named pUHC13-3 (Gossen et al. 1992), contains seven tetO elements located upstream of a minimal CMV promoter. The plasmid pRL-CMV (PROMEGA®, Madison, Wis., USA), in which the expression of Renilla luciferase is controlled by the CMV promoter, was used as an internal control to allow correction for differences in transfection efficiency.
C33A and HeLa X1/6 cells were grown in 2-cm^2 wells to 60% confluency and transfected by the calcium phosphate precipitation method (Das et al. 1999). C33A cells were transfected with 0.4 ng pCMV-rtTA (wild-type or mutant), 20 ng pLTR-2ΔtetO-luc or pCMV-7tetO-luc, 0.5 ng pRL-CMV, and 980 ng pBluescript as carrier DNA. HeLa X1/6 cells were transfected with 8 ng pCMV-rtTA, 2.5 ng pRL-CMV, and 990 ng pBluescript. The amount of the DNA constructs was optimized for each cell type to keep rtTA-mediated transactivation within the linear range and to avoid squelching of transcription factors. Cells were cultured for 48 hours in the presence of different concentrations of dox, Tc or Mc, and lysed in Passive Lysis Buffer (PROMEGA®). Firefly and Renilla luciferase activities were determined with the dual-luciferase reporter assay (PROMEGA®). The activity of the rtTA variants was calculated as the ratio of the firefly and Renilla luciferase activities, and corrected for between-session variation.
FIG. 2. Novel rtTA variants show increased activity and dox-sensitivity in different Tet systems. The transcriptional activity of rtTA variants was measured in C33A cells transfected with a plasmid carrying the firefly luciferase reporter gene under the control of the viral LTR-2ΔtetO promoter (LTR-2ΔtetO; A) or under the control of a minimal CMV-derived promoter coupled to seven tetO elements (CMV7-tetO; B). Furthermore, rtTA activity was measured in HeLa X1/6 cells (Baron et al. 1997) that contain a chromosomally integrated copy of the CMV-7tetO reporter construct (CMV7tetO-integrated; C, D). Variants V1 to V10 were compared in all three Tet systems (panels A-C) and variants V11 to V18 in the cells with the integrated reporter (panel D). Cells were transfected with the indicated rtTA expression plasmid or pBluescript as a negative control, and a plasmid constitutively expressing Renilla luciferase to correct for differences in transfection efficiency. Cells were cultured in the presence of different dox concentrations (0-1000 ng/ml). The ratio of the firefly and Renilla luciferase activities measured 2 days after transfection reflects the rtTA activity. All values were related to the wild-type (wt) rtTA activity at 1000 ng/ml dox, which was arbitrarily set at 100%. In (C and D), average values of three transfections are shown with error bars indicating the standard deviation.
FIG. 3. […]

Molecule	basal / background activity in the absence of inducer	other results
V9I F67S C68R G138D F86Y: rtTA variant with these amino acid substitutions (protein) MSRLDKSKIINSALELLNGVGIEGLTTRKLAQKLGVEQPTLYWHVKNKRALLDALPIEMLDRHHTHSRPLEGESWQDFLRNNAKSYRCALLSHRDGAKVHLGTRPTEKQYETLENQLAFLCQQGFSLENALYALSAVDHFTLGCVLEEQEHQVAKEERETPTTDSMPPLLRQAIELFDRQGAEPAFLFGLELIICGLEKQLKCESGGPADALDDFDLDMLPADALDDFDLDMLPADALDDFDLDMLPG	no or low basal activity	–
E37Q F67S F86Y A209T: rtTA variant with these amino acid substitutions (protein) MSRLDKSKVINSALELLNGVGIEGLTTRKLAQKLGVQQPTLYWHVKNKRALLDALPIEMLDRHHTHSCPLEGESWQDFLRNNAKSYRCALLSHRDGAKVHLGTRPTEKQYETLENQLAFLCQQGFSLENALYALSAVGHFTLGCVLEEQEHQVAKEERETPTTDSMPPLLRQAIELFDRQGAEPAFLFGLELIICGLEKQLKCESGGPTDALDDFDLDMLPADALDDFDLDMLPADALDDFDLDMLPG	no or low basal activity	rtTA activation by minocycline (Mc) (listed as F67S E37Q F86Y A209T): particularly sensitive for minocycline; also recorded: very sensitive for minocycline; basal / background activity in the absence of inducer (listed as F67S E37Q F86Y A209T): low background activity
V9I F67S E157K F86Y: rtTA variant with these amino acid substitutions (protein) MSRLDKSKIINSALELLNGVGIEGLTTRKLAQKLGVEQPTLYWHVKNKRALLDALPIEMLDRHHTHSCPLEGESWQDFLRNNAKSYRCALLSHRDGAKVHLGTRPTEKQYETLENQLAFLCQQGFSLENALYALSAVGHFTLGCVLEEQEHQVAKEKRETPTTDSMPPLLRQAIELFDRQGAEPAFLFGLELIICGLEKQLKCESGGPADALDDFDLDMLPADALDDFDLDMLPADALDDFDLDMLPG	no or low basal activity	–
V9I F67S R171K F86Y: rtTA variant with these amino acid substitutions (protein) MSRLDKSKIINSALELLNGVGIEGLTTRKLAQKLGVEQPTLYWHVKNKRALLDALPIEMLDRHHTHSCPLEGESWQDFLRNNAKSYRCALLSHRDGAKVHLGTRPTEKQYETLENQLAFLCQQGFSLENALYALSAVGHFTLGCVLEEQEHQVAKEERETPTTDSMPPLLKQAIELFDRQGAEPAFLFGLELIICGLEKQLKCESGGPADALDDFDLDMLPADALDDFDLDMLPADALDDFDLDMLPG	no or low basal activity	–
V9I F67S G138D F86Y: rtTA variant with these amino acid substitutions (protein) MSRLDKSKIINSALELLNGVGIEGLTTRKLAQKLGVEQPTLYWHVKNKRALLDALPIEMLDRHHTHSCPLEGESWQDFLRNNAKSYRCALLSHRDGAKVHLGTRPTEKQYETLENQLAFLCQQGFSLENALYALSAVDHFTLGCVLEEQEHQVAKEERETPTTDSMPPLLRQAIELFDRQGAEPAFLFGLELIICGLEKQLKCESGGPADALDDFDLDMLPADALDDFDLDMLPADALDDFDLDMLPG	no or low basal activity	–
V9I F67S C68R G138D F86Y A209T: rtTA variant with these amino acid substitutions (protein) MSRLDKSKIINSALELLNGVGIEGLTTRKLAQKLGVEQPTLYWHVKNKRALLDALPIEMLDRHHTHSRPLEGESWQDFLRNNAKSYRCALLSHRDGAKVHLGTRPTEKQYETLENQLAFLCQQGFSLENALYALSAVDHFTLGCVLEEQEHQVAKEERETPTTDSMPPLLRQAIELFDRQGAEPAFLFGLELIICGLEKQLKCESGGPTDALDDFDLDMLPADALDDFDLDMLPADALDDFDLDMLPG	no or low basal activity	rtTA activation by minocycline (Mc): particularly sensitive for minocycline; rtTA activation by tetracycline (Tc) (0-10000 ng/ml Tc): particularly sensitive for tetracycline
V9I C68R G138D F86Y: rtTA variant with these amino acid substitutions (protein) MSRLDKSKIINSALELLNGVGIEGLTTRKLAQKLGVEQPTLYWHVKNKRALLDALPIEMLDRHHTHFRPLEGESWQDFLRNNAKSYRCALLSHRDGAKVHLGTRPTEKQYETLENQLAFLCQQGFSLENALYALSAVDHFTLGCVLEEQEHQVAKEERETPTTDSMPPLLRQAIELFDRQGAEPAFLFGLELIICGLEKQLKCESGGPADALDDFDLDMLPADALDDFDLDMLPADALDDFDLDMLPG	no or low basal activity	–
E37Q F67S F86Y: rtTA variant with these amino acid substitutions (protein) MSRLDKSKVINSALELLNGVGIEGLTTRKLAQKLGVQQPTLYWHVKNKRALLDALPIEMLDRHHTHSCPLEGESWQDFLRNNAKSYRCALLSHRDGAKVHLGTRPTEKQYETLENQLAFLCQQGFSLENALYALSAVGHFTLGCVLEEQEHQVAKEERETPTTDSMPPLLRQAIELFDRQGAEPAFLFGLELIICGLEKQLKCESGGPADALDDFDLDMLPADALDDFDLDMLPADALDDFDLDMLPG	no or low basal activity	–
